Measurements: the nanobody polyreactivity screen of Harvey et al. (2022)

Test: yeast display, Sf9 membrane polyspecificity reagent, FACS + sequencing; frameworks hold sequencing errors
Summary of the method: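 Using colony PCR, genes from sorted yeast display clones were amplified, then sequenced on MiSeq at 2 × 250 and filtered by CDR length. The clones had been stained with 10% biotinylated, detergent-solubilized Sf9 membrane reagent for 1 hour at 4 °C and sorted by FACS into low and high (top ~1%) gates on anti-HA and streptavidin fluorescence. Polyreactivity labels come from the gate of origin.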
With “QVQLVESGGGLVQAGGSLRLSCAASGSIFRSYAIGWYRQAPGKERELVASISRRGGSTYYADSVKGRFTISRDNAKNTVYLQMKSLKPEDTAVYYCAAVRYNSRVSTTPSEMYYWGQGTQVTVSS” the “polyreactivity (PSR sort gate)” value was “low polyreactivity”.
In the case of “QDQLVESGGGLVQAGGSLRLICAASGRTFNRYGMGWNRQATGKERELVASITSGGSTNYADSVKGRFTISRDNAKNNVYLQMNSLKLEDTAVYYCAKRSIGRYPRTYDYWGQGTQVTVSS”, the “polyreactivity (PSR sort gate)” value is reported as “low polyreactivity”.
For “QVQLVESGGGLVQAGGSLRLSCAASGSTFIRNAMGWYRQAPGKERELVAAINSGGNTYYADSVKGRFTISRDNAKNTVYLQMNSLKPEDTAVYYCAKAWGTYRSVYYRGYYWGQGTQVTVSS”, the “polyreactivity (PSR sort gate)” value was “high polyreactivity”.
For “QVQLVESGGGLVQAGGSLRLSCSASGRIFYPYAMGWYRQAPGKERELVAAITRRTASTYYADSVKGRFTISRDNAKNTVYLQMNSLKPEDTAVYFCAADSYLKRPYYAGYYYWGQGTQVTVSS”, the “polyreactivity (PSR sort gate)” value was “high polyreactivity”.
For “QVQLVESGGGLVQAGGSLRLSCAASGITLGYYAMGWYRQAPGKERELVAAISYRGGNTYYADSVKGRFTISRDNAMKTVYLQMNSLKPEDSAVYYCAAYDEYYGYDYWGQGTQVTVSS”, the “polyreactivity (PSR sort gate)” value was “low polyreactivity”.
For “QVQLVESGGGLVQAGGSLRLSCAASGSIFATNAMGWYRQAPGKERELGASSSSGGGSTYYADSVKGRFTISRDNAKNTVYLQLNSLKPEDTADSYCARRIGPGSRPSWLETWRYPYDYWGQGTQVTVSS”, the “polyreactivity (PSR sort gate)” value was “low polyreactivity”.
For “QGQLVESGGGLGQAGGSLRLSCAASGSTSGIYAMGWYRQAPGKERELVAAIDTSGGSSYADSVKGRFTISRDNAKHTVYLQMNSLKPEDTAVYYCAKPFCSNSWSHGYWGQGTQVTVSS”, the “polyreactivity (PSR sort gate)” value was “low polyreactivity”.
In the case of “QDQLVESGGGLVQAGGSLRLSCAASGRIFPWYTMGWYRQAPGKERELVAVISSGGRTHYADSVKGRFTISRDNAKNTVYLLMNSLKPEDTAVYYCAAESRYQRYDYWGQGTKVTVSS”, the “polyreactivity (PSR sort gate)” value is reported as “high polyreactivity”.
In the case of “QVQLVESGGGLVQAGGSLRLSCAASGRIFSYYTMGWYRQAPGKEREMVAAITWNGGSTYYADSVKGRFTISRDNAKNTVYLQMNSLKPEDTGVYYCNRDVRYVGPSGFDYWGQGTQVTVSS”, the “polyreactivity (PSR sort gate)” value is reported as “high polyreactivity”.
With “QVQLVESGGGLVQAGGSLRLSCAASGLSFPLNAMGWYRPAPGKERQLVAAITYSGGGTYYADSVKGRFTISRDTAKNTGYLQMNSLKTEDTAVYYCAADGSVSYYTYYYWGQGTQVTVSS” the “polyreactivity (PSR sort gate)” value was “low polyreactivity”.
For “QVQLVESGGGLVQAGGSLRLSCAASGRTFVVYAMGWYRQAPGKERELVAVISFTGDSTFYADSVKGRFTISRDNSKNTVYLQMNSLKPEDTAVYYCAADFRRVFSKYSYYLYFDFDYWGQGTQVTVSS”, the “polyreactivity (PSR sort gate)” value was “low polyreactivity”.
For “QVQLVESGGGLVQAGGSLRLSCAASGRIFLTYAMGWYRQAPGKERELVAAISGRGGSTYYADSVNGRFTISRDYAKNTVYLQMNSLKPEDTAVYYCAAAKWVIQTGNYYYWGQGTQVTVSS”, the “polyreactivity (PSR sort gate)” value was “low polyreactivity”.
With “QVQLVESGGGLVQAGGSLRLSCAASGIIFAYYAMGWYRQAPGKERELVAAIDYSGASTYYADSVKGRFTISRDNAKNTVYLQMNSLKPEDTAVYYCNADDFGYASYEYWGQGTQVTVSS” the “polyreactivity (PSR sort gate)” value was “low polyreactivity”.
For “QVQHEESGGGLVQAGGSLRLSCAASGFTFFSNAMGWFRQAPGKERELVAAITTNGGSTYYADSVKGRFTISRDNAKNTVYLQMYSLKPEDTAGYYCAAEYGITDYDYWGQGTQVTVSS”, the “polyreactivity (PSR sort gate)” value was “low polyreactivity”.
In the case of “QVQLVESGGGLVQAGGSLRLSCAASGRIFRHNAMGWYRQAPGKESELVAAISGGGTTYYADSVKGRFTISRDNAKNTVYLQMNSLKPEDTAVYYCAARRRGSVGVGYAYPYNYWGQGTQVTVSS”, the “polyreactivity (PSR sort gate)” value is reported as “high polyreactivity”.
In the case of “QVQLVESAGGLVQAGGSLRLSCAASGFIFVRNAMGWYRPAPGKVRELVAAISRSGGRTYNADSVKGRFTISRDNAKNTVYLQMNSLKPEDTAVYYCAARSGYFRSRFDYWGQGTQVTVSS”, the “polyreactivity (PSR sort gate)” value is reported as “high polyreactivity”.
For “QVQLVESGGGLVQAGGSLRLSCAASGITYTDYDLGCYRQAPGKERELVAAISNGGGSTYYADSVKGRFTISRDNAKNTVYLQMNSLKPEDTGVYYWAAERVPSWWVEWGVAQWDDYWGQGTQVTVSS”, the “polyreactivity (PSR sort gate)” value was “low polyreactivity”.
With “QVQLVESGGGLVQAGGSLRLSCAASGSIFVLYAMGWYRQAPGKERELVAAITASGGSTHYADSVKGRFTISRDNAKNTVYLQMNSLKPEDTAVYYCNADVYTEYDYWGQGTQVTVSS” the “polyreactivity (PSR sort gate)” value was “low polyreactivity”.
In the case of “QVQLVESGGGLVQAGGSLRLSCAASGLIFDYYAMGWYRQAPGKERELVASINNRGGSTFYADSVKGRFTISRDNAKNTVYLQMNSLKPEDTAVYYCNAVRRTGGHGDYWGQGTQVTVSS”, the “polyreactivity (PSR sort gate)” value is reported as “high polyreactivity”.
For “QVQLVESGGGLVQAGGSLRLSCASSGSTFGPYTMGWYTQAPGKERELVATISSGGSTYYADSVKGRFTISRDNAKYTVYLQMKSLKPEDTAVYYCAARYWSIYDYWGQGTQVTVSS”, the “polyreactivity (PSR sort gate)” value was “low polyreactivity”.
With “QVQLVDSGGGLVQAGGSLRLSCAASGSTFVKYTMGWYRQAPGKERELVAVISRSGGSTYYADSVKGRFTISRDNAKNTVYLQMNSLKPEDTAVYYCAAHFSRDFDYWGLGTQVTVSS” the “polyreactivity (PSR sort gate)” value was “high polyreactivity”.
For “QVQLVESGGGLLQAGGSLRLSCAASGSMFGLYAMGWYRQAPGKERELVAAISKSGGSTYYADSVKGRFTISRDNAKNTVYLQMNSLKPEDTAVYFCAARQYPRAGFDYWGQGTQVTVSS”, the “polyreactivity (PSR sort gate)” value was “high polyreactivity”.
For “QVQLVESGGGLVQAGGSLRLSCAASGRIFHGNAMGWYRQAPGKEREMVAAITSGGRTFYADSVKGRFTISRDNAKNTVYLQMNSLIPEDTAVFYCNAPSIAGYAEYNSHDYWGQGTQVTVSS”, the “polyreactivity (PSR sort gate)” value was “high polyreactivity”.
In the case of “QVQLVESGGGLVQAGGSLSLSCAASGLIYYSYAMGWYRQAPGKERELVAAITGGGSTNYADSVKGRFTISPDNAKNTVYLQMNSLKPEDTAVYYCAAAFTLRKYDYWGQGTQVSVSS”, the “polyreactivity (PSR sort gate)” value is reported as “low polyreactivity”.
In the case of “QDQLVESGGGLVQAGRSLRLSCAASGRTFRTYTMGWYRQAPGKERELVAAISRGGSTNYADSVKGRFTISRDNEKNTVYLQMNSLKPEDTAVYYCNAKASFCSPYDYWGQGTQVTVSS”, the “polyreactivity (PSR sort gate)” value is reported as “high polyreactivity”.
For “QVQLVESGGGLVQAGGSLRLSCAASGSNFSFYAMGWYRQAPGKERELVAAISWSGGTTYYADSVKGRFTISRDNAKNTVYLQMNSLKPEDTAVYYCAASEYDGYGGYYWGQGSQVTVSS”, the “polyreactivity (PSR sort gate)” value was “low polyreactivity”.
With “QVQLVESGGGLVQAGGSLRLSCAASGSTFKYYSIGWYRQAPGKERELVASITGRTVGTYYADSVKGRFTISRDIAKNTVYLQMNSLKPEDTAVFYCATDLYWDYPDKGYTVSWWYGYWGQGTQVTVSS” the “polyreactivity (PSR sort gate)” value was “low polyreactivity”.
For “QVQPVESGGGLVQAGGSLRLSCDASGRIFYEYAMGRSRQAPGKERELVAISTSGGNTYYADSVKGRFTISRDNAKNTVYLQMKSLKPEDTEVYYCAKRGYRAYYWGQGTLVTVSS”, the “polyreactivity (PSR sort gate)” value was “high polyreactivity”.
With “QVQLVESGGGLVQAGGSLRLSCAASGSTIADNAMGWYRQAPGKERELVAAITRSGVRTYYADSVKGRFTISRDTAKNTVYLQMNSLKPEDTAVYYCAKRTYPSRIYDYWGQGTQVTVSS” the “polyreactivity (PSR sort gate)” value was “high polyreactivity”.
For “QVQLVESGGGLVQAGGSLRLSCAASGFILKYYAMGWYRQAPGKERELVAAISWSGGSTYYADSVKGRFTISRDNAKNTVYLQMNSLKPEVTAVYYCNAYYVYNSLGYWGQGTQVTVSS”, the “polyreactivity (PSR sort gate)” value was “high polyreactivity”.
In the case of “QVQLVESGGGLVQAGGSLRLSCAASGRTFYIYAMGWYRQAPGKERELVAAITRGGGSTSYADSVKGRFTISRDNAKNTVYLQMNSLKPEDTAVYYCAARYYFRWRRYDYWGQGTQVTVSS”, the “polyreactivity (PSR sort gate)” value is reported as “high polyreactivity”.
In the case of “QVQLVESGGGLVQAGGSLRLSCAASGSTFRYYAMGWYRQAPGKEWELVAVISTSGNTYYADSVKGRFTISRDNAKNTVYLQMNSLKPEDTAVYYCAARGVGGQISQEYDYWGQGTQVTVSS”, the “polyreactivity (PSR sort gate)” value is reported as “low polyreactivity”.
For “QVQLVESGGGLVQAGGSLRLSCAASGLTFTPNAMGWYRQAPGKEREFVAAITWRGGRTYYADSVKGRFTISRDNAKNTVYLQMNSLKPEDTAVYYCAADSFKGYDYWGQGTQVTVSS”, the “polyreactivity (PSR sort gate)” value was “high polyreactivity”.
For “QVQLVESGGGLVQAGGSLRLSFAASGRNFYRYAMGWYRQAPGKERELVAAISRGGRTNYADSVKGRFTISRDNAKNTGYLQMNSLKPEDTAVYYCAVTNFGALYDYWGQGTQVTVSS”, the “polyreactivity (PSR sort gate)” value was “high polyreactivity”.
In the case of “QVQLVESGGRLVQAGGSLRLSCAASGSTFWYYAMGWYRQAPGKERELVASITYSGGSTYYADSVKGRFTISRDTAKNTVYLQMNSLKPEDTAVYYCAAEGYYSNYHYWGQGTQVTVSS”, the “polyreactivity (PSR sort gate)” value is reported as “low polyreactivity”.
For “QVQLVESVGGLVQAGGSLRLSCSASGSIIYSYAMGWYRQAPGKERELVADITTGGGSTYYADSVKGRFTISRDNAKNTVYLQMNSLKPEDTAVYYCAAEQDTVWFLWIVDYCGQGTQVTVSS”, the “polyreactivity (PSR sort gate)” value was “low polyreactivity”.
For “QVQLVESGRGLVQAGGSLRLSCAASGSTFRYNAMGWYRQAPGKERELVAAINRGGGTDYADSVKGRFTISRDNAKNTDYLQMNSLKPEDTAVYYCAKQFVSYNRWLAYGYWGQGTQVTVSS”, the “polyreactivity (PSR sort gate)” value was “low polyreactivity”.
In the case of “QVQLVESGGGLVQAGGSLRLSCADSGSTFWFYAMGWYRQAPGKERELVAVISNSGSTYYADSVKGRYTISRDNAKNTVSLQMNSLKPEDTAVYYCNKDGGGDSYWYVYWGQGTQVTVSS”, the “polyreactivity (PSR sort gate)” value is reported as “low polyreactivity”.
For “QVQLVESGGGLVQAGGSLRLSCAASGSIYSYTMGWYRQAPGKEREFVAAITYSGDSTYYADSVKGRFTISRDNEKNTVYLQMNSLTPEDTAVYDCAAAGGRGSYYRLDYWGQGTQVTVSS”, the “polyreactivity (PSR sort gate)” value was “low polyreactivity”.
With “LVLLVESGGGLVQAGGSLRLSCAASGSSLDWYAMGWYRQAPGNVRELVASLSYSGGTTYYADSVTVRFTISRDNAKNTVYLQMISLKPDDTAVDYCATDLLNNVDYDYWGQGTQVTVSS” the “polyreactivity (PSR sort gate)” value was “low polyreactivity”.
In the case of “QVQLVESGGGLVQAGGILRLSCAASGSTFTGYAMGWYRQAPGKERELVAAISSSGGRTYYAASVKGRFTISRDNANNTVYLQMNSLKPEVTAVYYCATDHYRYGGYSWGQGTEVTVSS”, the “polyreactivity (PSR sort gate)” value is reported as “high polyreactivity”.
For “QVQLVESGGGLVQAGGSLRLSCAASGRTIYVYAMGWYRQAPGKERELVADINWSGGSTYYADSVKGRFTISRDNAKNTVYLQMNSLKPEDTAVYYCAADDWVRRRSHSGPEGYVYWGQGTQVTVSS”, the “polyreactivity (PSR sort gate)” value was “low polyreactivity”.
For “QVQLVESGGGLVQAGGRLRLSGAASGLIFTTYAMGWSRQAPGKVRELVAAISSSGDSTYYADSVKGRFTISRDNAKNTVYLQMNSLKPEDTAVYYRAARYYYRGYEFGYWGQGTQVTVSS”, the “polyreactivity (PSR sort gate)” value was “high polyreactivity”.
